The values that follow come from PMC4735030.

The test addresses porcine colonic mucins (porcine). As to the kind of experiment: SPR. Background: SPR reads the build-up and loss of mass on a sensor chip optically.

Regarding “recombinant BL0675 A type with a C-terminal 6 x His tag (natural protein)”, the Kd (as a rule, the equilibrium constant for the complex coming apart) was 98.2 nM; the koff (as a rule, a measure of how fast the partners let go of each other) was 0.00279 s⁻¹; the kon (commonly the second-order rate constant of association) was 28400 M⁻¹ s⁻¹.
